Measurements as given in patent US20080227711A1 (LABORATOIRES SERONO, published 2008).

Experiments:
CXCL8/IL-8 [1] = target: T1, CXCL8/IL-8 (UniProt P10145 28-99, limits assumed); assay: equilibrium competition receptor binding assay: inhibition of 0.1 nM 125I-IL-8 binding to CHO/CXCR1 cells
T1 construct: also called 125I-CXCL8/IL-8; 125I-IL-8
T1 sequence (looked up): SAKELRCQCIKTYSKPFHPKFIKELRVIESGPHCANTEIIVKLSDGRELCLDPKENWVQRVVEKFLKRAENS

murine CXCL1/KC [2] = target: T2, murine CXCL1/KC (murine, UniProt P12850 25-96); assay: SPR (Biacore 3000), Evasin-3 from E. coli immobilized on CM4 chip, Kd=kd/ka
T2 sequence: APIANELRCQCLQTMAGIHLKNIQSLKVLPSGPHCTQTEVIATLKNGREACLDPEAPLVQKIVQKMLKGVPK

CXCL1/Gro-alpha [3] = target: T3, CXCL1/Gro-alpha (UniProt P09341 35-107); assay: as above
T3 construct: also called Gro-α; 125I-CXCL1/Gro-alpha
T3 sequence: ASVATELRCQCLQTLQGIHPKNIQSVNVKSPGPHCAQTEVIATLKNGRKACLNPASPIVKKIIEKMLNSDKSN

murine CXCL2/MIP-2 [4] = target: T4, murine CXCL2/MIP-2 (murine, UniProt P10889 28-100); assay: as above
T4 sequence: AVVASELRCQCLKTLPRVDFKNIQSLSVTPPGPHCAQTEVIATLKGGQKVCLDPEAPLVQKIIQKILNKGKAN

CXCL8/IL-8 [5] = target: T1, CXCL8/IL-8; assay: as above
murine CXCL1/KC [6] = target: T2, murine CXCL1/KC; assay: SPR (Biacore 3000), Evasin-3 from E. coli immobilized on CM4 chip, chemokine injected, Langmuir global fit
CXCL1/Gro-alpha [7] = target: T3, CXCL1/Gro-alpha; assay: as above
murine CXCL2/MIP-2 [8] = target: T4, murine CXCL2/MIP-2; assay: as above
CXCL8/IL-8 [9] = target: T1, CXCL8/IL-8; assay: as above
CCL2/MCP-1 = target: T5, CCL2/MCP-1 (UniProt P13500 24-99); assay: SPR (Biacore 3000), Evasin-3 from E. coli immobilized on CM4 chip, chemokine injected
T5 construct: also called 125I-MCP-1
T5 sequence (P13500 24-99 limits assumed): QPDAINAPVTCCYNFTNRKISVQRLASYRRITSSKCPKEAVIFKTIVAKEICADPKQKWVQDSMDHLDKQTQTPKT

CCL4/MIP-1-beta = target: T6, CCL4/MIP-1-beta (UniProt P13236 24-92); assay: as above
T6 construct: also called MIP-1β
T6 sequence: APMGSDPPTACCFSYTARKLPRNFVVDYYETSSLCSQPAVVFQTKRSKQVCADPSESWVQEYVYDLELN

CCL5/RANTES = target: T7, CCL5/RANTES (UniProt P13501 24-91); assay: as above
T7 construct: also called 125I-CCL5/RANTES
T7 sequence: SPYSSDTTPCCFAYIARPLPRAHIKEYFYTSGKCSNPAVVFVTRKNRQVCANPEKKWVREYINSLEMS

CCL18/PARC = target: T8, CCL18/PARC (UniProt P55774 21-89); assay: as above
T8 sequence: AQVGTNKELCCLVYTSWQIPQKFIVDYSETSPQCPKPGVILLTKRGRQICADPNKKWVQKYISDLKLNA

CCL3/MIP-1-alpha = target: T9, CCL3/MIP-1-alpha (UniProt P10147 24-92); assay: as above
T9 construct: also called MIP-1α
T9 sequence: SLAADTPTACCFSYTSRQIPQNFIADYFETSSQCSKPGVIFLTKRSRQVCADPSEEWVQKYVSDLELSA

CCL11/eotaxin = target: T10, CCL11/eotaxin (UniProt P51671 24-97); assay: as above
T10 construct: also called 125I-eotaxin
T10 sequence (P51671 24-97 limits assumed): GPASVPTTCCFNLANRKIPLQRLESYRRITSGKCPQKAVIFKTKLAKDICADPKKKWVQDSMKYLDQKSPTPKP

CX3CL1/Fractalkine = target: T11, CX3CL1/Fractalkine (UniProt P78423 25-100); assay: as above
T11 sequence: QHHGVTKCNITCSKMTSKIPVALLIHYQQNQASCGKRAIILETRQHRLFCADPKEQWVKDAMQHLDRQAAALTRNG

CXCL12/SDF-1-alpha = target: T12, CXCL12/SDF-1-alpha (UniProt P48061 22-89); assay: as above
T12 construct: also called SDF-1α
T12 sequence (P48061 22-89 limits assumed): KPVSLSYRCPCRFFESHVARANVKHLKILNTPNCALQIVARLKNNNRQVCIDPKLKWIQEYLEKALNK

B1: recombinant Evasin-3 produced in E. coli (Met-Evasin-3) (other)
chain: MLVSTIESRTSGDGADNFDVVSCNKNCTSGQNECPEGCFCGLLGQNKKGHCYKIIGNLSGEPPVVRR
notes: No tag, not glycosylated; also called mature Met-Evasin-3
CXCL8/IL-8 [1]
  IC50: 20 nM
Murine CXCL1/KC [2]
  Kd: 4.56 nM
CXCL1/Gro-alpha [3]
  Kd: 1.21 nM
Murine CXCL2/MIP-2 [4]
  Kd: 0.84 nM
CXCL8/IL-8 [5]
  Kd: 0.53 nM
Murine CXCL1/KC [6]
  koff: 0.00235 s⁻¹
  kon: 514000 M⁻¹ s⁻¹
CXCL1/Gro-alpha [7]
  koff: 0.00269 s⁻¹
  kon: 2.23e+06 M⁻¹ s⁻¹
Murine CXCL2/MIP-2 [8]
  koff: 0.000878 s⁻¹
  kon: 1.05e+06 M⁻¹ s⁻¹
CXCL8/IL-8 [9]
  koff: 0.00032 s⁻¹
  kon: 603000 M⁻¹ s⁻¹
CCL2/MCP-1
  binding result: no binding (tested: 0.5 µg/ml chemokine)
CCL4/MIP-1-beta
  binding result: no binding (tested: 0.5 µg/ml chemokine)
CCL5/RANTES
  binding result: no binding (tested: 0.5 µg/ml chemokine)
CCL18/PARC
  binding result: no binding (tested: 0.5 µg/ml chemokine)
CCL3/MIP-1-alpha
  binding result: no binding (tested: 0.5 µg/ml chemokine)
CCL11/eotaxin
  binding result: no binding (tested: 0.5 µg/ml chemokine)
CX3CL1/Fractalkine
  binding result: no binding (tested: 0.5 µg/ml chemokine)
CXCL12/SDF-1-alpha
  binding result: no binding (tested: 0.5 µg/ml chemokine)
